Data on ten molecules can be found in PMC10079162 (Nature Communications, 2023).

First the molecules themselves.
B1: CR3022 M40P S56G Q67R; T59K (output_8) (antibody, V domains shown)
VH: QMQLVQSGTEVKKPGESLKISCKGSGYGFITYWIGWVRQPPGKGLEWMGIIYPGDGETRYSPSFQGRVTISADKSINTAYLQWSSLKASDTAIYYCAGGSGISTPMDVWGQGTTVTVVS
VL: not shown
B2: Nb.b201 WT (VHH)
VHH: QVQLQESGGGLVQAGGSLRLSCAASGYISDAYYMGWYRQAPGKEREFVATITHGTNTYYADSVKGRFTISRDNAKNTVYLQMNSLKPEDTAVYYCAVLETRSYSFRYWGQGTQVTVSS
notes: source: HEK293 cells; obtained at high purity
B3: Nb.b201 T55D (VHH)
VHH: QVQLQESGGGLVQAGGSLRLSCAASGYISDAYYMGWYRQAPGKEREFVATITHGDNTYYADSVKGRFTISRDNAKNTVYLQMNSLKPEDTAVYYCAVLETRSYSFRYWGQGTQVTVSS
notes: as for B2
B4: Nb.b201 H53P T55G (VHH)
VHH: QVQLQESGGGLVQAGGSLRLSCAASGYISDAYYMGWYRQAPGKEREFVATITPGGNTYYADSVKGRFTISRDNAKNTVYLQMNSLKPEDTAVYYCAVLETRSYSFRYWGQGTQVTVSS
notes: as for B2
B5: Nb.b201 H53R (VHH)
VHH: QVQLQESGGGLVQAGGSLRLSCAASGYISDAYYMGWYRQAPGKEREFVATITRGTNTYYADSVKGRFTISRDNAKNTVYLQMNSLKPEDTAVYYCAVLETRSYSFRYWGQGTQVTVSS
notes: as for B2
B6: Nb.b201 T55G (VHH)
VHH: QVQLQESGGGLVQAGGSLRLSCAASGYISDAYYMGWYRQAPGKEREFVATITHGGNTYYADSVKGRFTISRDNAKNTVYLQMNSLKPEDTAVYYCAVLETRSYSFRYWGQGTQVTVSS
notes: as for B2
B7: Nb.b201 A31D (VHH)
VHH: QVQLQESGGGLVQAGGSLRLSCAASGYISDDYYMGWYRQAPGKEREFVATITHGTNTYYADSVKGRFTISRDNAKNTVYLQMNSLKPEDTAVYYCAVLETRSYSFRYWGQGTQVTVSS
notes: as for B2
B8: Nb.b201 H53P (VHH)
VHH: QVQLQESGGGLVQAGGSLRLSCAASGYISDAYYMGWYRQAPGKEREFVATITPGTNTYYADSVKGRFTISRDNAKNTVYLQMNSLKPEDTAVYYCAVLETRSYSFRYWGQGTQVTVSS
notes: as for B2
B9: Nb.b201 A31D T55G (VHH)
VHH: QVQLQESGGGLVQAGGSLRLSCAASGYISDDYYMGWYRQAPGKEREFVATITHGGNTYYADSVKGRFTISRDNAKNTVYLQMNSLKPEDTAVYYCAVLETRSYSFRYWGQGTQVTVSS
notes: as for B2
B10: Nb.b201 A31D T55D (VHH)
VHH: QVQLQESGGGLVQAGGSLRLSCAASGYISDDYYMGWYRQAPGKEREFVATITHGDNTYYADSVKGRFTISRDNAKNTVYLQMNSLKPEDTAVYYCAVLETRSYSFRYWGQGTQVTVSS
notes: as for B2

For the first assay, the target named is SARS CoV-2 RBD (SARS-CoV-2, strain  …, UniProt P0DTC2).
Assay: not given
Conditions: not given
With B1, the binding result was “binds”.

Another assay concerns the target T1, human serum albumin (Homo sapiens, UniProt P02768).
T1 construct: also called HSA
The assay can be described thus: BLI; format and conditions not told in the main text (methods are in the Supplementary Materials). Conditions: both partners purified.
On to B2, for which the binding result is “binds”. On the same count and under the same terms, under B3 stands “binds”; under B4, “binds”; under B5, “binds”. On the same count and under the same terms, under B6 stands “binds”; under B7, “binds”. Still for that read-out and setting: under B8 stands “binds”; under B9, “binds”; under B10, “binds”.
